These results are taken from paper PMC4751435 (2016).

The chains are these.
B1: luciferase-FOXP2 (wild-type, full-length 1-715) [human] / YFP-PIAS1 (wild-type) [human] (parent complex)
chain 1: MMQESATETISNSSMNQNGMSTLSSQLDAGSRDGRSSGDTSSEVSTVELLHLQQQQALQAARQLLLQQQTSGLKSPKSSDKQRPLQVPVSVAMMTPQVITPQQMQQILQQQVLSPQQLQALLQQQQAVMLQQQQLQEFYKKQQEQLHLQLLQQQQQQQQQQQQQQQQQQQQQQQQQQQQQQQQQQQQQQQQHPGKQAKEQQQQQQQQQQLAAQQLVFQQQLLQMQQLQQQQHLLSLQRQGLISIPPGQAALPVQSLPQAGLSPAEIQQLWKEVTGVHSMEDNGIKHGGLDLTTNNSSSTTSSNTSKASPPITHHSIVNGQSSVLSARRDSSSHEETGASHTLYGHGVCKWPGCESICEDFGQFLKHLNNEHALDDRSTAQCRVQMQVVQQLEIQLSKERERLQAMMTHLHMRPSEPKPSPKPLNLVSSVTMSKNMLETSPQSLPQTPTTPTAPVTPITQGPSVITPASVPNVGAIRRRHSDKYNIPMSSEIAPNYEFYKNADVRPPFTYATLIRQAIMESSDRQLTLNEIYSWFTRTFAYFRRNAATWKNAVRHNLSLHKCFVRVENVKGAVWTVDEVEYQKRRSQKITGSPTLVKNIPTSLGYGAALNASLQAALAESSLPLLSNPGLINNASSGLLQAVHEDLNGSLDHIDSNGNSSPGCSPQPHIHSIHVKEEPVIAEDEDCPMSLVTTANHSPELEDDREIEEEPLSEDLE
chain 2: MADSAELKQMVMSLRVSELQVLLGYAGRNKHGRKHELLTKALHLLKAGCSPAVQMKIKELYRRRFPQKIMTPADLSIPNVHSSPMPATLSPSTIPQLTYDGHPASSPLLPVSLLGPKHELELPHLTSALHPVHPDIKLQKLPFYDLLDELIKPTSLASDNSQRFRETCFAFALTPQQVQQISSSMDISGTKCDFTVQVQLRFCLSETSCPQEDHFPPNLCVKVNTKPCSLPGYLPPTKNGVEPKRPSRPINITSLVRLSTTVPNTIVVSWTAEIGRNYSMAVYLVKQLSSTVLLQRLRAKGIRNPDHSRALIKEKLTADPDSEIATTSLRVSLLCPLGKMRLTIPCRALTCSHLQCFDATLYIQMNEKKPTWVCPVCDKKAPYEHLIIDGLFMEILKYCTDCDEIQFKEDGTWAPMRSKKEVQEVSASYNGVDGCLSSTLEHQVASHHQSSNKNKKVEVIDLTIDSSSDEEEEEPSAKRTCPSLSPTSPLNNKGILSLPHQASPVSRTPSLPAVDTSYINTSLIQDYRHPFHMTPMPYDLQGLDFFPFLSGDNQHYNTSLLAAAAAAVSDDQDLLHSSRFFPYTSSQMFLDQLSAGGSTSLPTTNGSSSGSNSSLVSSNSLRESHSHTVTNRSSTDTASIFGIIPDIISLD
B2: luciferase-FOXP2 (wild-type, full-length 1-715) [human] / YFP-PIAS4 [human] (parent complex)
chain 1: B1 chain 1
chain 2: MAAELVEAKNMVMSFRVSDLQMLLGFVGRSKSGLKHELVTRALQLVQFDCSPELFKKIKELYETRYAKKNSEPAPQPHRPLDPLTMHSTYDRAGAVPRTPLAGPNIDYPVLYGKYLNGLGRLPAKTLKPEVRLVKLPFFNMLDELLKPTELVPQNNEKLQESPCIFALTPRQVELIRNSRELQPGVKAVQVVLRICYSDTSCPQEDQYPPNIAVKVNHSYCSVPGYYPSNKPGVEPKRPCRPINLTHLMYLSSATNRITVTWGNYGKSYSVALYLVRQLTSSELLQRLKTIGVKHPELCKALVKEKLRLDPDSEIATTGVRVSLICPLVKMRLSVPCRAETCAHLQCFDAVFYLQMNEKKPTWMCPVCDKPAPYDQLIIDGLLSKILSECEDADEIEYLVDGSWCPIRAEKERSCSPQGAILVLGPSDANGLLPAPSVNGSGALGSTGGGGPVGSMENGKPGADVVDLTLDSSSSSEDEEEEEEEEEDEDEEGPRPKRRCPFQKGLVPAC
B3: luciferase-FOXP2 (wild-type, full-length 1-715) [human] / YFP-PIAS3 [human] (parent complex)
chain 1: B1 chain 1
chain 2: MAELGELKHMVMSFRVSELQVLLGFAGRNKSGRKHELLAKALHLLKSSCAPSVQMKIKELYRRRFPRKTLGPSDLSLLSLPPGTSPVGSPGPLAPIPPTLLAPGTLLGPKREVDMHPPLPQPVHPDVTMKPLPFYEVYGELIRPTTLASTSSQRFEEAHFTFALTPQQVQQILTSREVLPGAKCDYTIQVQLRFCLCETSCPQEDYFPPNLFVKVNGKLCPLPGYLPPTKNGAEPKRPSRPINITPLARLSATVPNTIVVNWSSEFGRNYSLSVYLVRQLTAGTLLQKLRAKGIRNPDHSRALIKEKLTADPDSEVATTSLRVSLMCPLGKMRLTVPCRALTCAHLQSFDAALYLQMNEKKPTWTCPVCDKKAPYESLIIDGLFMEILSSCSDCDEIQFMEDGSWCPMKPKKEASEVCPPPGYGLDGLQYSPVQGGDPSENKKKVEVIDLTIESSSDEEDLPPTKKHCSVTSAAIPALPGSKGVLTSGHQPSSVLRSPAMGTLGGDFLSSLPLHEYPPAFPLGADIQGLDLFSFLQTESQHYGPSVITSLDEQDALGHFFQYRGTPSHFLGPLAPTLGSSHCSATPAPPPGRVSSIVAPGGALREGHGGPLPSGPSLTGCRSDIISLD
B4: luciferase-FOXP2 (wild-type, full-length 1-715) [human] / YFP-PIAS2 [human] (parent complex)
chain 1: B1 chain 1
chain 2: MADFEELRNMVSSFRVSELQVLLGFAGRNKSGRKHDLLMRALHLLKSGCSPAVQIKIRELYRRRYPRTLEGLSDLSTIKSSVFSLDGGSSPVEPDLAVAGIHSLPSTSVTPHSPSSPVGSVLLQDTKPTFEMQQPSPPIPPVHPDVQLKNLPFYDVLDVLIKPTSLVQSSIQRFQEKFFIFALTPQQVREICISRDFLPGGRRDYTVQVQLRLCLAETSCPQEDNYPNSLCIKVNGKLFPLPGYAPPPKNGIEQKRPGRPLNITSLVRLSSAVPNQISISWASEIGKNYSMSVYLVRQLTSAMLLQRLKMKGIRNPDHSRALIKEKLTADPDSEIATTSLRVSLMCPLGKMRLTIPCRAVTCTHLQCFDAALYLQMNEKKPTWICPVCDKKAAYESLILDGLFMEILNDCSDVDEIKFQEDGSWCPMRPKKEAMKVSSQPCTKIESSSVLSKPCSVTVASEASKKKVDVIDLTIESSSDEEEDPPAKRKCIFMSETQSSPTKGVLMYQPSSVRVPSVTSVDPAAIPPSLTDYSVPFHHTPISSMSSDLPGLDFLSLIPVDPQYCPPMFLDSLTSPLTASSTSVTTTSSHESSTHVSSSSSRSETGVITSSGSNIPDIISLD

Variants of B1 are the subject of one test. The test is described as follows: BRET; HEK293 cells; n = 3; control donor (nuclear-targeted luciferase) est. 0.000; read off a plot.
Turning to chain 1 R553H, the response was around 0.014 BRET ratio.

The variants in a further test derive from B1. The test is described as follows: BRET; control donor est. 0.036; read off a plot. A general note: BRET reads energy transfer from a luciferase to a nearby fluorophore.
For chain 1 K674R, the response was around 0.11 BRET ratio.

Variants of B2 are the subject of a further test. The test is described as follows: BRET; HEK293 cells; n = 3; control donor (nuclear-targeted luciferase) est. 0.001; read off a plot.
In the case of chain 1 R553H, the response was around -0.006 BRET ratio.

The variants in a further test derive from B2. The test is described as follows: BRET; control donor est. 0.026; read off a plot.
For chain 1 K674R, the response is around 0.071 BRET ratio.

The variants in a further test derive from B3. The test is described as follows: BRET; HEK293 cells; n = 3; control donor (nuclear-targeted luciferase) est. -0.003; read off a plot.
Turning to chain 1 R553H, the response was around 0.026 BRET ratio.

The variants in a further test derive from B3. The experiment in a line: BRET; control donor est. 0.040; read off a plot.
Take chain 1 K674R: the response is around 0.087 BRET ratio.

In another test the parent is B4. The experiment in a line: BRET; control donor est. 0.030; read off a plot.
Regarding chain 1 K674R, the response is around 0.047 BRET ratio.

The variants in another test derive from B4. The experiment in a line: BRET; HEK293 cells; n = 3; control donor (nuclear-targeted luciferase) est. -0.008; read off a plot.
As to chain 1 R553H, the response was around -0.005 BRET ratio.
